Measurements: patent publication US20150086555A1 (THERACLONE SCIENCES, published 2015)
Where a chain is given by its changes, count along the chain named.

B1: TCN-539 (5056_A08) (antibody, V domains shown)
VH: QVQLVESGGGVVQPGRSLRLSCAASEITFITYAMHWVRQAPGKGLEWVALISDDGSNKFYADSVKGRFTISRDNSKNTLYLQMNSLRAEDTAAYYCAREGVYFDSGTYRGYFDYWGQETLVTVSS
VL: EIVLTQSPATLSLSPGERATLSCRASQSVSSYLAWYQQKPGQAPRLLIYDASNRATGIPARFSGSGSGTDFTLTISSLEPEDFAVYYCQQRSHWPPITFGQGTRLEIK
B2: TCN-536 (5095_N01) (antibody, V domains shown)
VH: QVQLQQWGAGLLKPSETLSLTCAVYGGSFSVSGYYWSWIRQPPGRGLEWIGEISHGGSTNYNPSLKSRVTISVDTTKNQFSLRLSSVTAADTAVYYCARGTDPDTEVYCRVGNCAAFDYWGQGSLVTVSS
VL: EIILAQSPGTLSLSPGERATLSCRASQFVSTRSLAWYQQRPGQAPRLLIYGASSRATGIPDRFSGSGSGTDFTLTISRLEPEDFAVYYCQHYGYSPRYAFGQGSKVEIK
B3: TCN-521 (3280_D18) (antibody, V domains shown)
VH: EVQLVQSGGGLVQPGGSLRLACVVSGFTVTSNYITWVRQAPGKGLEWVSVIYSHGRAYYSASVNGRFTISRHTSKNTVYLEMNSLRPEDTAVYYCAGGGLVGGYDEYFFDYWGQGTLATVSS
VL: ETVLTQSPGTLSLTPGERATLSCRVGQSVSGSHLAWYQQKPGQAPRLLIYGASSRATGIPDRFGGSVSGTDFTLTISRLEPEDSAVYYCQQYGDSRYTFGQGTKLEIK
B4: TCN-542 (5079_A16) (antibody, V domains shown)
VH: QVQLQESGPGLVKPSQTLSLTCTVSGGSISSGNYYWNWVRQHPGKGLEWIGYIYYRGSTFYNPSLKSRVTISIDTSKNQFSLRLSSVTAADTAVYYCAKDTRSSLDNYQYGMDVWGQGTTVTVSS
VL: QTVVTQEPSLTVSPGGTVTLTCASSTGAVTSSYFPNWFQQKPGQAPRPLIYSTTIRHSWTPARFSGSLLGGKAALTLSGVQPEDEADYYCLLYSGGDPVAFGGGTKLTVL
B5: TCN-546 (5089_L08) (antibody, V domains shown)
VH: QVQLQQWGAGLLKPSETLSLTCGVYGGSLSDYYWSWIRQPPGKGLEWIGEINHSGGTNYNPSLKRRVTISVDTSKKQFSLKMNSVTAADTAVYYCARGTDPDTEVYCRAGNCAAFDFWGQGTLVTVSS
VL: EIVLTQSPGTLSLSPGERATLSCRASHFVIGRAVAWYQQKPGQAPRLLIYGASSRATGIPDRFSGSGSGTDFTLTISRLETEDFAVFYCQHYGSSPRYAFGQGTKLEIK
B6: TCN-543 (5081_G23) (antibody, V domains shown)
VH: QVHLVQSGAEVRKPGDSVKVSCKTSGYTFSTYPVAWVRQVPGQGLEWMGWISTYNGNTNFAQNFQGRVTLTTDTTTNTAYMEVRSLKFDDTAVYYCARVEGSYRDFWNNQNRFDPWGQGTLVTVSS
VL: SYVLTQPPSVSVAPGQTARISCGGSNIGGKSVHWYQQKPGQAPVLVVYDDSGRPSGIPERFSGSNSGDTATLTISRVEAGDEADYFCQVWDNFGGVFGTGTKVTVL
B7: TCN-526 (5084_C17) (antibody, V domains shown)
VH: EVLMVESGGGLVQPGGSVRLSCVASGFSFSSHWMTWVRQAPGKGLEWVANIEDDGGDKYYVDSVKGRFIISRDNAKNSVYLQMNSLRAEDTAVYFCARGSGSSDRSDYDPHYYYYLDVWGKGATVTVSS
VL: DIQLTQSPSSLSASVGDRVTITCRASQSISRYLNWYQQKPGKAPKLLLFAASTLLDGVPSRFSGSGSGTDFTLTISSLQPEDFATYYCQRNHSPSWTFGQGTRVEIK
B8: TCN-545 (5082_I15) (antibody, V domains shown)
VH: QVQLQQWGAGLLKPSETLSLSCAVFGGSFSDYYWTWIRQPPGKGLEWIGEIKHSGRTNYNPSLESRVTISVDTSKNQFSLKLSSVTAADTAIYYCARGTDPDTEGYCRSGSCSAFDFWGQGTLVTVSS
VL: EIVLTQSPGTLSLSPGERATLSCRASHFVNYRSLAWYQQTPGQVPRLLIYGASTRATGIPDRFSGSGSGTDFTLTISRLEPEDFAVYFCQQYGGSPRYTFGQGTRLEIK
B9: TCN-564 (5256_A17b) (antibody, V domains shown)
VH: QVQLVQSGADVKKPGSSVTVSCKASGGSFSNYGINWVRQAPGQGLEWMGGIIPLINAPNYAPKFQGRVTITADMFSNIVSLQLTSLRTDDTAVYYCARRKMTTAIDYWGQGTLVTVSS
VL: QPVLSQPPSASASLGASVTLTCTLSSGFDNYQVAWYQQRPGKGPRFVMRVGNGGNVASKGDGIPDRFSVSGSGLNRYLTIKNIQEDDESDYYCGADHGSGNNFVSPYVFGGGTKLTVL
B10: TCN-533 (5256_A17a) (antibody, V domains shown)
VH: B9 VH
VL: QPVLTQPPSASASLGASVTLTCTLSSAYSNYKVDWYQQRPGKGPRFVMRVGTGGIVGSKGDGIPDRFSVLGSGLNRYLTIKNIQEEDESDYHCGADHGSGSNFVSPYVFGGGTKLTVL
B11: TCN-535 (5246_P19) (antibody, V domains shown)
VH: QVQLVQSGSEVKKPGTSVKVSCTASGSVFTNYGISWVRQAPGQGLEWMGGIIPLFGAAKYAQKFQGRVTITADESTKTVYMELSRLTSKDTAIYFCAKAPRVYEYYFDQWGQGTPVTVSS
VL: EIVLTQSPGTLSLSPGERATLSCRASQSVSSSQLAWYQQKPGQAPRLIIYGASTRATGIPDRFSGSGSGTDFTLTIGRLEPEDFAVFFCQQYSTSPPTFGQGTKVDFK
B12: TCN-528 (5087_P17) (antibody, V domains shown)
VH: QVQLVQSGSEVKKPGASVKVSCKASGYTFTNYDINWIRQAPGQGLEWMGWINPNSGTTGSAQRFQGRVTITVDTSITTVYMELSSLRSDDTAIYYCARGRELLRLQHFLTDSQSERRDCFDPWGQGTLVTVSS
VL: DIQMTQSPSSLSASVGDRVTITCRANQDIGIYLNWYQQNPGKVPKLLLHGASSLQGGVPSRFSASGSGTDFTLTIHSLQPEDLATYYCQQSRRLPYTFGQGTRVELK
B13: TCN-534 (5249_B02) (antibody, V domains shown)
VH: QVQLVQSGAEVKKPGSSVKVSCRESGGTFNGYTITWVRQAPGQGLEWMGGIIPMMGTVNYAQKLQGRVTITTDYFTKTAYMDLNNLRSEDTAMYYCVKIRYTGQQLLWGQGTLVTVSS
VL: DIQMTQSPSTLSASIGDRVTITCRASQSIASWLAWYQQKPGKAPKLLIYEAVNLESGVPSRFSGSGSGTDFTLTISSLQPDDFATYFCQHYGTISQTFGGGTKVEIK
B14: TCN-544 (5082_A19) (antibody, V domains shown)
VH: QVQLQESGPGLVKPSETLSLTCTVSRGSIGHYFWSWIRQPPGKGLEWIGYISYSGSTKYNPSLRSRVTISVDTSKNQFSLNLNSVTATDTALYYCAREDYDILTGAGPGMEVWGQGTTVTVSS
VL: QSMLTQPPSASGTPGQRVTISCSGSSSNIGSNTVNWFKHLPGTAPKLLIYRNDLRPSGVPDRFSGSKSGTSASLAISGLQSEDEADYYCATWDDSLNGFYVFGTGTKVTVL
B15: TCN-540 (5060_F05) (antibody, V domains shown)
VH: QVQLVQSGGGVVQPGRSLRLSCAASGFTFSSYAMHWVRQAPGKGLEWVAIISYDGNDQYYTDSVKGRFTISRDSSKVYLQMHRLRPEDTAVYYCAKEFETSGYFHGSFDYWGQGILVTVSS
VL: QSALTQPASVSGSPGQSITISCTGTSSDVGGYNYVSWYQQHPGKAPKLLIYEVTNWPSGVSNRFSGSKSGNTASLTISGLQAEDEADYYCSSYAGSSTWVFGGGTRVTVL
B16: TCN-560 (5084_P10) (antibody, V domains shown)
VH: EVQLVESGGGLVQPGGSLRLSCAASGFIFRNYWMSWVRQAPGKGLEWVANIKQDGREKYYVDSLRGRVNISRDNAENSLYLHMNSLRVEDTAVYFCARARMVVVTGDGFDVWGHGTMVTVSS
VL: DIQMTQSPSSLSASVGDRVTITCRASQNIKRYFNWYQQKPGKAPKLLIYAASNLENGVPSRFSGSGSGTDFTLTISSLQPEDFATYYCQQSFSKSWTFGQGTNVDIK
B17: TCN-523 (5248_A17) (antibody, V domains shown)
VH: QVQLVQSGAEVKKPGSSVKVSCKASGGSFSNYAFSWVRQAPGQGLEWMGGTIPLLGTTNYAQKFQGRVTISADQFTSTAYMELGSLRSEDTAVYYCTRRKMTTAFDSWGQGTLVTVSS
VL: B10 VL
B18: TCN-530 (5248_H10a) (antibody, V domains shown)
VH: QVQLVQSGAEVRKPGSSVKVSCKASGGPFMSYAIGWVRQAPGQGLEWMGGINPVFGRPHYAQKFQGRVTIATDDSTKTSYMELSSLTSEDTGMYYCASRYSRSSPGTFESWGQGTLVTVSS
VL: EIVMTQFPATLSVSPGERVTLSCRASQSVSNNLAWYQQKPGQPPRLLIYDASTRATGVPAKFSGTGSGTEFTLSISSLQSEDFAVYYCQQYHNWPPSYSFGLGTKLEIK
B19: TCN-527 (5086_C06) (antibody, V domains shown)
VH: QVQLQESGPGLVKPSETLSLNCAVSGGSISNYYWSWIRQPPGKGLEWIGYISYNGRPKYNPSLTSRVTISVDTSKDQFSLELRSVTAADTALYYCARETRFGELLSPYDAFEIWGQGTMVTVSS
VL: DIQMTQSPSSLSASVGDRVTMTCRASQNIRSYLNWYQQRPGTAPKLLIYAASTLHSGVPSRFSGGGSGTDFTLTINNLQPEDFASYYCQQSYDNPQTFGQGTKVEIK
B20: TCN-555 (5246_L16) (antibody, V domains shown)
VH: QVQLVQSGAEVKRPGSSVKVSCTASGGIFRKNAISWVRQAPGQGLEWMGGIIAVFNTANYAQKFQNRVKITADESGNTAYMELSSLTSDDTAVYYCASHPKYFYGSGSYPDFWGQGTLVTVSS
VL: QSALTQPRSVSGSPGQSITISCTGGSSDIGASNSVSWYQQHPGKAPKLVIFDVTERPSGVPHRFSGSKSGNTASLTVSGLQPDDEADYFCCAYGGKYLVVFGGGTKVTVL
B21: TCN-563 (5237_B21) (antibody, V domains shown)
VH: B20 VH with V5A, N66G, T87R
VL: B20 VL with I18V, G25S, I29V, F51Y, D83E
B22: TCN-531 (5091_H13) (antibody, V domains shown)
VH: EVQLVESGGDLVQPGRSLKLSCTGSGFTFGDYGVTWVRQAPGKGLEWVGFIRTRPWGGTADTAASVKGRFTISRDDSKSLAYLQMNSLKTEDTAVYYCCRDAPPNVEVASMTNWYFDLWGRGTLVTVSS
VL: DIQLTQSPSSLSASVGDRVTITCRASQGILNCLAWYQQKPGKVPNLLMYAASTLQSGVPSRFSGSGFGTDFTLTISSLQPEDVATYYCQTYGGVSTFGGGTKVEIR

Biological target: hemagglutinin (HA) of influenza A/Japan/305/57 (H2N2) on whole virions (Influenza A virus A/Japan/305/1957(H2N2), UniProt P03451 16-562)
Assay: ELISA; BCC supernatant on coated inactivated whole virions

Row | Binder | ELISA virus binding (OD450)
1 | B1 | 0.06
2 | B2 | 0.08
3 | B3 | 3.1
4 | B4 | 0.08
5 | B5 | 0.06
6 | B6 | 3.62
7 | B7 | 0.07
8 | B8 | 0.06
9 | B9 | 1.1
10 | B10 | 1.1
11 | B11 | 1.46
12 | B12 | 2.82
13 | B13 | 2.56
14 | B14 | 0.07
15 | B15 | 3.62
16 | B16 | 2.07
17 | B17 | 1.62
18 | B18 | 1.73
19 | B19 | 1.48
20 | B20 | 0.6
21 | B21 | 1.23
22 | B22 | 0.67
